From the supplement of paper PMC9112550, “Optimization of the antimicrobial peptide Bac7 by deep mutational scanning” (BMC Biology, 2022) come the findings set out here.
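Further: peptides expressed intracellularly from a pBAD plasmid library in pooled LB shake-flask culture, induced with 0.3% L-arabinose, DNA abundance read by NGS, three biological replicates, DESeq2 with apeglm shrinkage.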

This data set has as its system Escherichia coli TOP10. In words: shrunken log2 fold change of peptide-encoding DNA abundance (4.5 h post-induction vs induction); higher = less antimicrobial activity (less host growth inhibition). Conditions: time post-induction: 4.5 h; library: site-saturation at positions 5, 18, 19, 20.
On to RRIRSRPPRLPRPRPRPVTWPRP, for which the “shrunken log2 fold change” value was 0.0066.
The same measure for RRIRTRPPRLPRPRPRPTNFPRP: -0.0921; for RRIRMRPPRLPRPRPRPICPPRP: -0.123; for RRIRVRPPRLPRPRPRPPCLPRP: -0.108.
The same measure for RRIRRRPPRLPRPRPRPIGPPRP: 0.147.
With RRIRTRPPRLPRPRPRPGRKPRP the figure was 0.282.
Take RRIRVRPPRLPRPRPRPCAGPRP: the “shrunken log2 fold change” value was -0.106.
With RRIRCRPPRLPRPRPRPYTTPRP the figure was -0.97; with RRIRQRPPRLPRPRPRPKLTPRP, -0.0707; with RRIRARPPRLPRPRPRPTHRPRP, 0.46.
With RRIRWRPPRLPRPRPRPSKGPRP the figure was 0.0944; with RRIRFRPPRLPRPRPRPISHPRP, -0.202.
With RRIRFRPPRLPRPRPRPMCYPRP the figure was -0.416.
As for RRIRCRPPRLPRPRPRPGDAPRP, the “shrunken log2 fold change” value worked out at 0.466.
With RRIRCRPPRLPRPRPRPWWIPRP the figure was -0.655; with RRIRYRPPRLPRPRPRPGPLPRP, -0.151; with RRIRNRPPRLPRPRPRPVNNPRP, -0.647.
With RRIRSRPPRLPRPRPRPGQIPRP the figure was -0.227; with RRIRHRPPRLPRPRPRPMNNPRP, -0.759.
With RRIRYRPPRLPRPRPRPYKWPRP the figure was -0.169; with RRIRNRPPRLPRPRPRPVEFPRP, -0.00441.
As for RRIRHRPPRLPRPRPRPQNNPRP, the “shrunken log2 fold change” value was -0.731.
With RRIRARPPRLPRPRPRPHMNPRP the figure was -0.245.
With RRIRCRPPRLPRPRPRPSHIPRP the figure was -0.637; with RRIRERPPRLPRPRPRPVKQPRP, -0.0109.
With RRIRTRPPRLPRPRPRPCAIPRP the figure was 0.00368.
Turning to RRIRVRPPRLPRPRPRPQTYPRP, the “shrunken log2 fold change” value was -0.647.
The same measure for RRIRRRPPRLPRPRPRPPQEPRP: 0.405.
With RRIRNRPPRLPRPRPRPMAAPRP the figure was 0.582; with RRIRCRPPRLPRPRPRPRIEPRP, -0.205; with RRIRWRPPRLPRPRPRPQCAPRP, 0.572.
The same measure for RRIRWRPPRLPRPRPRPMRMPRP: 0.329.
With RRIRSRPPRLPRPRPRPDVVPRP, the “shrunken log2 fold change” value was -0.448.
As to RRIRCRPPRLPRPRPRPLTTPRP, the “shrunken log2 fold change” value stood at 0.729.
Consider RRIRNRPPRLPRPRPRPKEHPRP, for which the “shrunken log2 fold change” value was -0.0991.
With RRIRCRPPRLPRPRPRPLVYPRP the figure was -0.548; with RRIRHRPPRLPRPRPRPSWGPRP, -0.0416; with RRIRSRPPRLPRPRPRPCAFPRP, -0.236.
The same measure for RRIRLRPPRLPRPRPRPTEPPRP: 0.0962; for RRIRCRPPRLPRPRPRPSMFPRP: -0.651; for RRIRRRPPRLPRPRPRPQQLPRP: -0.0976.
The same measure for RRIRTRPPRLPRPRPRPHMVPRP: 0.00159; for RRIRCRPPRLPRPRPRPKTPPRP: 0.827.
For the sequence RRIRYRPPRLPRPRPRPPMYPRP, the “shrunken log2 fold change” value is -1.28.
The same measure for RRIRWRPPRLPRPRPRPPAIPRP: 0.178; for RRIRERPPRLPRPRPRPLGRPRP: -0.0894; for RRIRLRPPRLPRPRPRPHWTPRP: -0.015.
With RRIRRRPPRLPRPRPRPMKLPRP the figure was -0.123; with RRIRWRPPRLPRPRPRPFMYPRP, -0.0072; with RRIRKRPPRLPRPRPRPLAEPRP, 1.11.
The same measure for RRIRCRPPRLPRPRPRPTQCPRP: 0.0468.
As to RRIRVRPPRLPRPRPRPAYTPRP, the “shrunken log2 fold change” value is -0.286.
The same measure for RRIRWRPPRLPRPRPRPEEFPRP: 0.023.
The same measure for RRIRERPPRLPRPRPRPCRWPRP: -0.205; for RRIRTRPPRLPRPRPRPECQPRP: 0.0443; for RRIRNRPPRLPRPRPRPETQPRP: 0.162.
The same measure for RRIRIRPPRLPRPRPRPNCCPRP: -0.0793.
Turning to RRIRGRPPRLPRPRPRPEKDPRP, the “shrunken log2 fold change” value came out at 1.27.
With RRIRNRPPRLPRPRPRPDRHPRP the figure was 0.0343; with RRIRFRPPRLPRPRPRPACAPRP, 0.291; with RRIRHRPPRLPRPRPRPKEHPRP, 0.0812.
The same measure for RRIRFRPPRLPRPRPRPRTCPRP: -0.0542; for RRIRIRPPRLPRPRPRPGTVPRP: -0.624; for RRIRYRPPRLPRPRPRPKYTPRP: -0.415.
RRIRPRPPRLPRPRPRPHATPRP: the “shrunken log2 fold change” value was found to be 0.323.
Turning to RRIRPRPPRLPRPRPRPEKIPRP, the “shrunken log2 fold change” value was -0.0804.
With RRIRVRPPRLPRPRPRPNHYPRP the figure was -0.501.
As for RRIRIRPPRLPRPRPRPCMNPRP, the “shrunken log2 fold change” value was -0.307.
With RRIRSRPPRLPRPRPRPPVAPRP the figure was 0.403; with RRIRIRPPRLPRPRPRPRTWPRP, -0.0123; with RRIRFRPPRLPRPRPRPLYIPRP, -0.63.
With RRIRCRPPRLPRPRPRPDTWPRP the figure was -0.234; with RRIRCRPPRLPRPRPRPRNGPRP, 0.124; with RRIRYRPPRLPRPRPRPSIHPRP, -0.722.
The same measure for RRIRSRPPRLPRPRPRPAFRPRP: 0.452; for RRIRKRPPRLPRPRPRPRYSPRP: -0.705.
RRIRERPPRLPRPRPRPSTVPRP: the “shrunken log2 fold change” value is -0.0579.
The same measure for RRIRYRPPRLPRPRPRPLDVPRP: 0.0153.
The same measure for RRIRQRPPRLPRPRPRPHVLPRP: 0.0625.
For RRIRDRPPRLPRPRPRPLIDPRP, the “shrunken log2 fold change” value is 0.0319.
As to RRIRNRPPRLPRPRPRPRDCPRP, the “shrunken log2 fold change” value stood at 0.0442.
Regarding RRIRERPPRLPRPRPRPFTTPRP, the “shrunken log2 fold change” value is -0.381.
With RRIRARPPRLPRPRPRPTTWPRP the figure was 0.423; with RRIRNRPPRLPRPRPRPCFVPRP, -0.147; with RRIRNRPPRLPRPRPRPRPYPRP, -0.25.
RRIRVRPPRLPRPRPRPMEPPRP: the “shrunken log2 fold change” value came to 0.0643.
Take RRIRERPPRLPRPRPRPQILPRP: the “shrunken log2 fold change” value is -0.179.
On to RRIRIRPPRLPRPRPRPWCYPRP, for which the “shrunken log2 fold change” value was -0.406.
The same measure for RRIRTRPPRLPRPRPRPVYNPRP: -0.239; for RRIRLRPPRLPRPRPRPVLSPRP: -0.0937; for RRIRQRPPRLPRPRPRPVLFPRP: 0.166.
With RRIRSRPPRLPRPRPRPFDEPRP the figure was 0.0719; with RRIRNRPPRLPRPRPRPMVWPRP, -0.03; with RRIRLRPPRLPRPRPRPVEMPRP, -0.0829.
RRIRRRPPRLPRPRPRPDPGPRP: the “shrunken log2 fold change” value is -0.0599.
With RRIRYRPPRLPRPRPRPEWIPRP, the “shrunken log2 fold change” value was determined as 0.0106.
In the case of RRIRIRPPRLPRPRPRPNYTPRP, the “shrunken log2 fold change” value is -0.516.
The same measure for RRIRIRPPRLPRPRPRPSWYPRP: -0.604; for RRIRVRPPRLPRPRPRPQANPRP: 0.0748; for RRIRERPPRLPRPRPRPGINPRP: -0.249.
With RRIRYRPPRLPRPRPRPPNPPRP the figure was -0.145; with RRIRMRPPRLPRPRPRPPMGPRP, 0.921; with RRIRYRPPRLPRPRPRPLMCPRP, -0.632.
In the case of RRIRDRPPRLPRPRPRPCRLPRP, the “shrunken log2 fold change” value was determined as 0.00469.
As for RRIRYRPPRLPRPRPRPPSVPRP, the “shrunken log2 fold change” value is -0.209.
The same measure for RRIRGRPPRLPRPRPRPLSLPRP: 0.419; for RRIRDRPPRLPRPRPRPYVLPRP: -0.347; for RRIRMRPPRLPRPRPRPWMPPRP: 0.0554.
For the sequence RRIRARPPRLPRPRPRPRNEPRP, the “shrunken log2 fold change” value was determined as 0.557.
With RRIRCRPPRLPRPRPRPFSPPRP the figure was -0.181; with RRIRHRPPRLPRPRPRPEFDPRP, 0.12; with RRIRYRPPRLPRPRPRPLMFPRP, -1.04.
With RRIRGRPPRLPRPRPRPLHGPRP the figure was 0.212.
With RRIRWRPPRLPRPRPRPRHQPRP, the “shrunken log2 fold change” value is -0.0137.
The same measure for RRIRPRPPRLPRPRPRPTKQPRP: 0.169.
With RRIRFRPPRLPRPRPRPNPDPRP the figure was -0.0966.
The same measure for RRIRRRPPRLPRPRPRPYQHPRP: -0.983; for RRIRWRPPRLPRPRPRPNWLPRP: 0.0255; for RRIRLRPPRLPRPRPRPEPSPRP: 0.787.
Take RRIRSRPPRLPRPRPRPREIPRP: the “shrunken log2 fold change” value was 0.426.
With RRIRQRPPRLPRPRPRPQMAPRP the figure was -0.065; with RRIRPRPPRLPRPRPRPVSIPRP, -0.271.
With RRIRNRPPRLPRPRPRPLFVPRP the figure was -0.495; with RRIRGRPPRLPRPRPRPHSEPRP, 0.194.
The same measure for RRIRQRPPRLPRPRPRPALGPRP: 0.563.
